The values below are quoted from earlier work in PMC7154116.

The target of this data set is NTSR3/sortilin (UniProt Q99523).
Chain of UniProt Q99523 (Q99523 78-755): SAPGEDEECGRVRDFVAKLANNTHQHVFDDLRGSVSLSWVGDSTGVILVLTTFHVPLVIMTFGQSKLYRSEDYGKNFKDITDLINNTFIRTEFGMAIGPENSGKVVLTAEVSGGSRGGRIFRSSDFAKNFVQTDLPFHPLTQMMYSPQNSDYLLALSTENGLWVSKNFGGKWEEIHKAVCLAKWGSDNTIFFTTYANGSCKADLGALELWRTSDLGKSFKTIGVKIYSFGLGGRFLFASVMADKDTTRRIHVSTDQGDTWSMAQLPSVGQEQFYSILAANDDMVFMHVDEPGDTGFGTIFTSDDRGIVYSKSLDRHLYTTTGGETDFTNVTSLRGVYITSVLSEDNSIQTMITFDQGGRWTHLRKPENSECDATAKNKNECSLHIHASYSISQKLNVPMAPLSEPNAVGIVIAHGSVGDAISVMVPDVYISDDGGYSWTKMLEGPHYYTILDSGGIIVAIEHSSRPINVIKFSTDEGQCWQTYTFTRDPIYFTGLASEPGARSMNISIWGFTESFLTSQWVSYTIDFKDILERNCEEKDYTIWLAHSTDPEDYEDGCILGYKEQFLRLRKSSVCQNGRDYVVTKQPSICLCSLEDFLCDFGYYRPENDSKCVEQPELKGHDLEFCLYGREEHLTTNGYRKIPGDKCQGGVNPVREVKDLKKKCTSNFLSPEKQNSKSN

As a reminder, the Kd is the equilibrium constant for the complex coming apart. Take “Spadin propeptide fragment (from UniProt Q99523)”: the Kd is 8 nM.
